The numbers were not newly measured in PMC3651761, which cites them from elsewhere.

For one data set, the target named is IGF-IR (Homo sapiens) (UniProt P08069).
Data set [1] concerns the target Met receptor (Homo sapiens) (UniProt P08581).
UniProt P08581, sequence (P08581 25-932): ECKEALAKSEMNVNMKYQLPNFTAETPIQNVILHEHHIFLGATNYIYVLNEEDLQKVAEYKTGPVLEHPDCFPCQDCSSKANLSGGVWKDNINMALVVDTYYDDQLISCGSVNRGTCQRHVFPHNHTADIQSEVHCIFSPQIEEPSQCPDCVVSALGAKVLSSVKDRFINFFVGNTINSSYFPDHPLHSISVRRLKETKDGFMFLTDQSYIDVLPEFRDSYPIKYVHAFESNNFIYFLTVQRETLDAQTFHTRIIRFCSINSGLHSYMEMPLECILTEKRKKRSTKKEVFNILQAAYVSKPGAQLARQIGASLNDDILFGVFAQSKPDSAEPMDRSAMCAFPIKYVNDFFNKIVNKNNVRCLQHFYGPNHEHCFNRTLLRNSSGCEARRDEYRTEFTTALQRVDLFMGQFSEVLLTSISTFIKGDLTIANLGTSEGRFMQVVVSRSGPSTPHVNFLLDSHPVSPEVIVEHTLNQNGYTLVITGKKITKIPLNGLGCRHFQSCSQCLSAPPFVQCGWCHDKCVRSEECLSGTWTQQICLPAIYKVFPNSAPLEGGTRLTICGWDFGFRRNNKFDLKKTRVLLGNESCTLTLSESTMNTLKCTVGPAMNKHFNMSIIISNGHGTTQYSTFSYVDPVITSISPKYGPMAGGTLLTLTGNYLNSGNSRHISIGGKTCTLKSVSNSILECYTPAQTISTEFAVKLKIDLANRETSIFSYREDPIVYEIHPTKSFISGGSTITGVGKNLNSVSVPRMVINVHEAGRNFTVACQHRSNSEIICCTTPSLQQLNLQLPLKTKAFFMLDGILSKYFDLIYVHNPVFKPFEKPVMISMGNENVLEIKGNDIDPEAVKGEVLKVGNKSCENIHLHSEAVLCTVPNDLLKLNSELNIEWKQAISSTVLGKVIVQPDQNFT

UniProt P08069, sequence (P08069 31-736, chain 1 of 2): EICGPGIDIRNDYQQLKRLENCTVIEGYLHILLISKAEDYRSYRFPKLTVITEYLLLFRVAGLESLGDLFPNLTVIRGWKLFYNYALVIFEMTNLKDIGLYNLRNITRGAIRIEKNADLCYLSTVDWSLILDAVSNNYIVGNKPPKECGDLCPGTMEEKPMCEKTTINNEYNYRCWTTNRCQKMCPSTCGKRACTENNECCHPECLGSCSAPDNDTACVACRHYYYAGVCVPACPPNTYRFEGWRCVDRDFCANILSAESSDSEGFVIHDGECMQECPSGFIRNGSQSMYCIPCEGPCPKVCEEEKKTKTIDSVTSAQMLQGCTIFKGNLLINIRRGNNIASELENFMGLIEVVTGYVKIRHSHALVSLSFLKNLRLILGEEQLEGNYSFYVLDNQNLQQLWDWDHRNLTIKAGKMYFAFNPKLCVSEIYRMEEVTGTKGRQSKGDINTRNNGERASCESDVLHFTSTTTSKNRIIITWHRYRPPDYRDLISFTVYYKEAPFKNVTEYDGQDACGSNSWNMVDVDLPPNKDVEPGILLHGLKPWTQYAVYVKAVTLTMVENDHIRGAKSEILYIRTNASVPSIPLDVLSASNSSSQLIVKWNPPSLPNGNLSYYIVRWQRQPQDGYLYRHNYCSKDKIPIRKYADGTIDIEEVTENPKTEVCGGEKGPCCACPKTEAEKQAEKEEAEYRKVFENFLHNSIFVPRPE
UniProt P08069, sequence (P08069 741-935, chain 2 of 2): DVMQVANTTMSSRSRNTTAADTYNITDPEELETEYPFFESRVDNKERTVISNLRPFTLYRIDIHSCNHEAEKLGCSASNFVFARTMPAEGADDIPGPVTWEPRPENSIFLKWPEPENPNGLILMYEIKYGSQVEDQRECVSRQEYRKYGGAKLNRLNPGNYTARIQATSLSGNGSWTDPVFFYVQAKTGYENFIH

What is called Kd is a measure of binding affinity in units of concentration. Decorin (from UniProt P07585): the Kd with IGF-IR (Homo sapiens) is 18 nM; in data set [1] it was 2 nM.
